Test results: the supplement of paper PMC10567573

B1: SMG5 (parent)
chain: TNPDLIIVCAQSSQSLWNRLSVLL

Variants of: B1
Assay: protein stability index of a GFP-peptide fusion (GPS, HEK-293T) (PSI 1-6); higher = more stable
Settings: c terminus: a fixed tail appended
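Also: lentivirally expressed fusions sorted by FACS into six bins by GFP to DsRed ratio, PSI derived from sequencing read proportions per bin multiplied by bin number.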

Variant | protein stability index
TNPDLIIVCAQSSQSLWNHLSVLL [R19H] | 2.54
TNPDLIIVCAQSSQSLWNRLSVGL [L23G] | 3.55
TNPDLYIVCAQSSQSLWNRLSVLL [I6Y] | 2.83
TNPDLIIVCAQSTQSLWNRLSVLL [S13T] | 3.23
TNPDLIIVCAVSSQSLWNRLSVLL [Q11V] | 3.29
TNPDLIIVCAQSSQSLWNRKSVLL [L20K] | 2.77
TNPDLIIVCAQSAQSLWNRLSVLL [S13A] | 1.16
TNPDLIIVCAQSSQSLWNKLSVLL [R19K] | 2.5
TNPDLIIVCSQSSQSLWNRLSVLL [A10S] | 2.94
TNPALIIVCAQSSQSLWNRLSVLL [D4A] | 1.33
TNPDLIIVCAQSSQFLWNRLSVLL [S15F] | 4.58
TNPDLIIVCAQSSQWLWNRLSVLL [S15W] | 1.76
TNPDLIFVCAQSSQSLWNRLSVLL [I7F] | 1.45
TNPDLIIVCDQSSQSLWNRLSVLL [A10D] | 2.01
KNPDLIIVCAQSSQSLWNRLSVLL [T1K] | 4.48
TNPDLIIVCAQSSQTLWNRLSVLL [S15T] | 1.44
TNPDLIIVCAQSSQSLWKRLSVLL [N18K] | 2
MNPDLIIVCAQSSQSLWNRLSVLL [T1M] | 2.97
TNPDLIIVCAQSSQSLWNRLSVLS [L24S] | 1.38
TNPDLIIVCAQSSQSLWRRLSVLL [N18R] | 1.49
TNPDLIIVIAQSSQSLWNRLSVLL [C9I] | 2.72
TNPDLIIVCAQSSQSRWNRLSVLL [L16R] | 2.94
VNPDLIIVCAQSSQSLWNRLSVLL [T1V] | 2.84
TNPGLIIVCAQSSQSLWNRLSVLL [D4G] | 1.65

Variant | protein stability index
TNPDMIIVCAQSSQSLWNRLSVLL [L5M] | 2.01
TNPDLIIVCAQSSQSLWNRTSVLL [L20T] | 2.02
TNPDLIIECAQSSQSLWNRLSVLL [V8E] | 1.56
TNPDLIIVCAFSSQSLWNRLSVLL [Q11F] | 1.67
TNPDLIIVCAQSSQSLWERLSVLL [N18E] | 1.56
TNPDLIIVCAQSSQSLWNRPSVLL [L20P] | 2.92
TNPDLIIVCAQSSTSLWNRLSVLL [Q14T] | 3.58
TNPDLIIVCYQSSQSLWNRLSVLL [A10Y] | 3.09
TNFDLIIVCAQSSQSLWNRLSVLL [P3F] | 2.18
TNPDLIIVCAQSSQSLWNRLSVHL [L23H] | 3.59
TNLDLIIVCAQSSQSLWNRLSVLL [P3L] | 2.29
TNPDLIIVCAQSGQSLWNRLSVLL [S13G] | 2.42
TNPDLIIVCAWSSQSLWNRLSVLL [Q11W] | 1.54
TNPDLINVCAQSSQSLWNRLSVLL [I7N] | 1.64
TNPDLIIVQAQSSQSLWNRLSVLL [C9Q] | 2.09
TNKDLIIVCAQSSQSLWNRLSVLL [P3K] | 2.48
TNPDLIIVCAQSSQSLWNRLSVLP [L24P] | 1.38
WNPDLIIVCAQSSQSLWNRLSVLL [T1W] | 2.35
TNPDLIIVCAQPSQSLWNRLSVLL [S12P] | 1.33
TNPDLHIVCAQSSQSLWNRLSVLL [I6H] | 1.66
TNPDLIIVCAQSSQSLWNRLSVLG [L24G] | 2.84
TNPDLIIVCAQSSQSLWNRLQVLL [S21Q] | 2.87
TNPDLIIVCAQSSQSLWNALSVLL [R19A] | 1.74
TNPDLIIVCAQSSESLWNRLSVLL [Q14E] | 1.6

Variant | protein stability index
TNPDLIIVCAQSSQSLWNRLHVLL [S21H] | 2.52
TNPDFIIVCAQSSQSLWNRLSVLL [L5F] | 3.72
TNPDLIPVCAQSSQSLWNRLSVLL [I7P] | 2.41
TNPDLIIQCAQSSQSLWNRLSVLL [V8Q] | 1.85
TNPDLIIVCAQSSQSLWNRLSVEL [L23E] | 2.75
TNPDLIIVCAQSSQSLWNILSVLL [R19I] | 1.75
TNPDLIHVCAQSSQSLWNRLSVLL [I7H] | 1.68
TNPDLIDVCAQSSQSLWNRLSVLL [I7D] | 1.7
TNPDLIIDCAQSSQSLWNRLSVLL [V8D] | 2.09
TNPDLIIICAQSSQSLWNRLSVLL [V8I] | 2.93
FNPDLIIVCAQSSQSLWNRLSVLL [T1F] | 2.28
TNPDLIIVCAQSSQSLWNRLSVNL [L23N] | 3.27
TNPDLIIVCTQSSQSLWNRLSVLL [A10T] | 2.17
TNPDLIIVCAQSSQSLWQRLSVLL [N18Q] | 2.4
TNPDLIIVCAQSSQSLWNELSVLL [R19E] | 3.19
TNPDLIQVCAQSSQSLWNRLSVLL [I7Q] | 1.6
TNPDLIIVCAQSSQSLWNRLSKLL [V22K] | 2.17
TNPDLIIVCAQSSQSLWNFLSVLL [R19F] | 1.84
TNPDLIIVCNQSSQSLWNRLSVLL [A10N] | 1.95
TNPDLIIVCAQSSQSLWNCLSVLL [R19C] | 2.09
TNPDLIIVCAQSSQSLWNTLSVLL [R19T] | 3.21
TNPDHIIVCAQSSQSLWNRLSVLL [L5H] | 1.29
TNPDLIIVCAQSSQSLWNRCSVLL [L20C] | 2.88
TNPDLIIVCAQSSQSLWNRLSLLL [V22L] | 3.21

Variant | protein stability index
TNPDLIIVCAQSSQSLENRLSVLL [W17E] | 3
TNPDLIIVCAQSSQSCWNRLSVLL [L16C] | 2.91
TNPDLIIVCAQESQSLWNRLSVLL [S12E] | 2.22
TNPDLIIVCAQSSQALWNRLSVLL [S15A] | 2.62
TNPDLIIVCAQSSQSLWNRLSELL [V22E] | 1.91
TNPDLIIVCAQSSQSLWNRLSALL [V22A] | 2
TNPDNIIVCAQSSQSLWNRLSVLL [L5N] | 1.63
TNPDLIIVCAQSSYSLWNRLSVLL [Q14Y] | 3.2
TNPDLIIVCAQSSQSLQNRLSVLL [W17Q] | 1.9
TNDDLIIVCAQSSQSLWNRLSVLL [P3D] | 1.77
TCPDLIIVCAQSSQSLWNRLSVLL [N2C] | 2.8
TNPDLIISCAQSSQSLWNRLSVLL [V8S] | 1.7
TNPDLIIVCAQSSQSLWNRLSVIL [L23I] | 2.27
TNPDLIIVWAQSSQSLWNRLSVLL [C9W] | 3.33
TNPDLIIVCAQSSQSLWNQLSVLL [R19Q] | 2.95
TNPDLIIVCAQSSQSLWNRLTVLL [S21T] | 3.07
TNPKLIIVCAQSSQSLWNRLSVLL [D4K] | 3.33
TNPDLIIVCAQSSQSLWNRVSVLL [L20V] | 1.7
TNPDLIIVCAQSSPSLWNRLSVLL [Q14P] | 2.09
TNPDLIIVCAQSSQLLWNRLSVLL [S15L] | 2.45
TNPDLIIVCAQSSQSLWNPLSVLL [R19P] | 3.09
TNPDLIIVCAQSSQSLWNRLSVKL [L23K] | 1.99
